Laboratory results reported in the DeepSol protein solubility set.

Assay: soluble on expression in E. coli; label from the status in PepcDB or PDB records

Row | Sequence | soluble on expression in E. coli
1 | MSLKTTEYVAEILNELHNSAAYISNEEADQLADHILSSHQIFTAGAGRSGLMAKSFAMRLMHMGFNAHIVGEILTPPLAEGDLVIIGSGSGETKSLIHTAAKAKSLHGIVAALTINPESSIGKQADLIIRMPGSPKDQSNGSYKTIQPMGSLFEQTLLLFYDAVILKLMEKKGLDSETMFTHHANLEEGGSHHHHHH | soluble
2 | MGHHHHHHSHMSWWDYGYQIAGMANRTTLVDNNTWNNSHIALVGKAMSSNETAAYKIMRTLDVDYVLVIFGGVIGYSGDDINKFLWMVRIAEGEHPKDIRESDYFTPQGEFRVDKAGSPTLLNCLMYKMSYYRFGEMQLDFRTPPGFDRTRNAEIGNKDIKFKHLEEAFTSEHWLVRIYKVKAPDNRETLDHKPRVTNIFPKQKYLSKKTTKRKRGYIKNKLVFKKGKKIFKKTV | not soluble
3 | MANSLCFFSSPPTFCFQSPSKNPKPSHFFSTNDNTSSLVQKRELLQTSRSQSFEVKAANNNPQGTKPNSLVCANCEGEGCVACSQCKGGGVNLIDHFNGQFKAGALCWLCRGKKEVLCGDCNGAGFIGGFLSTFDE | soluble
4 | MSLEPYAAKAHEGYLRNLMLRYSERHEQLMVNIVTSWYDKALMQALKERLEAAMPEQQMTLLNNVTTRKNTVATGEQEYVISGDGYVTERLGDLDFRISANSFFQTNTRQAETLYDQIIAVGGITPEDTVYDLYCGTGTITLYLARHCKQAIGIEVVESAVKDAEMNAELNGLSNTVFFQADLKNFHAMQEALEPYAKPRIIVTDPPRAGMHPKALDTMLKLQPERIVYVSCNPDNLARDGKEIAARGYRMTSAQPVDMFPQTNHIETVACFERAEGHHHHHH | not soluble
5 | MGSSHHHHHHSSGLVPRGSHMSRVTVLQSQLPAYNRLKTPYESELIATVKKLTTPGKGLLAADESIGSCTKRFQPIGLSNTEEHRRQYRALMLEAEGFEQYISGVILHDETVGQKASNGQTFPEYLTARGVVPGIKTDMGLCPLLEGAEGEQMTEGLDGYVKRASAYYKKGCRFCKWRNVYKIQNGTVSESAVRFNAETLARYAILSQMSGLVPIVEPEVMIDGKHDIDTCQRVSEHVWREVVAALQRHGVIWEGCLLKPNMVVPGAESGKTAAPEQVAHYTVMTLARTMPAMLPGVMFLSGGLSEVQASEYLNAINNSPLPRPYFLSFSYARALQSSALKAWGGKESGLAAGRRAFLHRARMNSMAQLGKYKRSDDDASSSSLYVKGNTY | soluble
6 | MSLHLALLMRGGDPHCILDFGAGNGELCKLIALQFCYEPTPSLMAEAKENLADLPQISFCSDLEKISDGSVELIFCLEVFEHLPEKETKDALGQFDRLLTDNGNAVIGVPVEIGIPALYKGIFRMSRRFNTFDASIKNVLLAALSFPPKDRPVSEITPGFAFHHEHMGFDYRKLQALLHAQFGLQQVTTSPFSIFGPWLNPEVNFLIQKANPAVNADAAR | not soluble
7 | MGSDKIHHHHHHMAVSLWQQCIGRLQDELSAQQFSMWIRPLQAEMEGDTLVLYAPNRFVLDWVRDKYINSINQFFTEQLGDNAPKLRFDIGSRPSAKPQAPAPAAVKAAAPQPKPGNSFVSQPEPAVSNHRSNINPTYQFDNFVEGKSNQLGKAAALQVAENPGGAYNPLFLYGGTGLGKTHLLHAVGNGIIKNNPNAKVVYMHSERFVQDMVKALQNNAIEEFKRYYRSVDALFIDDIQFFANKDRSQEEFFHTFNALLEGNHQIILTSDRYPKEIDGVEDRLKSRFGWGLTVAIEPPELETRVAILMRKAQESGINLPDEVAFFIAKRLRSNVRELEGALNRVIANANFTGRPITIDFVREALRDLLALQEKLVTIDNIQKTVAEYYKIKMADMLSKRRSRSVARPRQMAMALSKELTNQSLPEIGDAFGGRDHTTVLHACRKIAQLREESHDIKEDYANLIRTLSS | not soluble
8 | AYQLYRNTTLGNSLQESLDELIQSQQITPQLALQVLLQFDKAINAALAQRVRNRVNFRGSLNTYRFCDNVWTFVLNDVEFREVTELIKVDKVKIVACDGKNTGSNTTE | soluble
9 | PKWQAVRAEYQRQRDPLHQFASQQNPEAQLQALQDKIRANPQNSEQWALLGEYYLWQNDYSNSLLAYRQALQLRGENAELYAALATVLYYQASQHMTAQTRAMIDKALALDSNEITALMLLASDAFMQANYAQAIELWQKVMDLNSPRINRTQLVESINMAKLLQRRSDLEHHHHHH | soluble
10 | MSLKVIATDMDGTLLDARGQLDLPRLEKILDQLDQRGIRFVIATGNEIHRMRQLLSPLVDRVVLVVANGARIFENNELIQAQTWDDAIVNKALTHFKGRACQDQFVVTGMKGDFVKEGTIFTDLESFMTPEMIEKFYQRMQFVDELTSDLFGGVLKMSMVVGEERLSSVLEEINALFDGRVRAVSSGYGCIDILQAGIHKAWGLEELLKRWDLKSQEIMAFGDSENDVEMLEMAGIAYAMENADEKAKAVATALAPANSQGGVYQVLENWLEKGEGHHHHHH | soluble
11 | GAAASIQTTVNTLSERISSKLEQEANASAQTKCDIEIGNFYIRQNHGCNLTVKNMCSADADAQLDAVLSAATETYSGLTPEQKAYVPAMFTAALNIQTSVNTVVRDFENYVKQTCNSSAVVDNKLKIQNVIIDECYGAPGSPTNLEFINTGSSKGNCAIKALMQLTTKATTQIAPKQVAGTGVQ | soluble
12 | MVEVESDSVAERDRSSFLAGHDAIRLAKSCVDSPPERWYAALYQVYADLTKLRCWSNVEVVYSDSATFPTGLLGPLFEEDSMVQELHSAQCILGSERACFHVRCCIVGSPPSGRAINALSPQSETRTEERIITSRREPEVVIAVPMHAMLKLSNLDQALRMSSHIEGIVKNRHVADSSASTHSTDRQAGSRKSSVIFGFVDEDTTTAYYRIREGACESNDRREFSTDDIASCLAQERT | not soluble
13 | MAHHHHHHMSEEKGAYLVFDNASNGTLFIVWKKEKVENALMFIKPTKEVPEFKFVNRNGKNELIRNLQSDKKLFYSGICQFVKEAKDIKGKLTLLQHFDSSFPIKVDLYFLKGSKVMPLNTGEPFVVQDIDAMSVLPKGSSSLKVKTMAKDMFVSRGNTEGASISF | not soluble
14 | MKKLAIVIPAYKVDFFETVLFSLAQQTCKDFTVYIGEDCSRDDFKSLIEQYSKQLDIVYRRFEVNFGGHDLVAQWNRCIQLTQNEPWLWLFSDDDIMGPRCVEYFFNTIAIDNGAFDIYHFDVKIVDCENQIVRIPTVYPSVIDSETFYRRKASARLDSFVVEYIFLRDIYNCTGGFQHFDLAWGSDIATWVKIGADKGIKTISGDYVYWRKSKKNITPNMDNKMVLRKLTADIEFTHWINEFFHKSSVYRFTKYAFFRLVVHYSQAISKSQIRLLLDKAVGKNIISFNDAFIINWTYRFIQLAKRVKDVLYFLEHHHHHH | soluble
15 | MQDVFIIGSRGLPAKYGGFETFVEELISHQSSKNIRYHVACLSDTKHKVHFDYKGADCFYLNPPKLGPARVIAYDMMAITYALSYSDQHQIQNPIFYVLGNTVGAFIAPFVKQIHNRGGRFFINPDGLEWKRSKWSRPVQAYLKFSEKQMTRQADLVISDNIGIDRYLKQVYPWSKTCFIAYGTQTQPSRLATADSKVRAYFQTFDIREKDYYLILGRFVPENNYETAIKEFMASSTKRDLVIICNHEGNAYFKQLLAETECDKDPRIKFVGTLYDKELLAYIREQAYAYIHGHEVGGTNPGLLEALAHTNLNLVLGVDFNQSVAKSAALYWTKQKGQLAELINQVDAGFDSDHLGKEAKAIIQEHYTWEKIVGEYEALFLNEH | not soluble
16 | MGSDKIHHHHHHMLTDHRCTKYTDCSSCSFYQRDIFKYRLYPKGYVIPQTRCMQNMVFFLVKGEIWLNSEEHPDTTFRGGQFVLQPIGSKVECKVLDYTECIIYLFERPQNICDNRFNKGISIVENERQQPIVMTMVPPIQLFIEGMKLYLNDDLRCSGLMQAKRSEMVYLLNCYYPIKELAAFYAPIYRYSHSFQYFVMQNYQKAKDVETFAQLGGYSVPTFRRIFKDTFGEPAYQWMLKRKCQDIHNDLIMTELSISEICYKYGFESLSNFSHFCRANFGQSPRSVRSLKDENT | not soluble
17 | MSLYAAYAGNLDPRLMTRRAPHSPLRATGWLNDWRLTFGGEHMGWEGALATIVEAPRSQVFVALYDIAPMDEDSMDRWEGVGLDIYRRMRVRVHTLEGEEAAWVYVLNGYEGGLPSARYLGELADAAESAGAPHDYVMELRKRPCLEHHHHHH | soluble
18 | LQERDIVPVDASYEVKELYVPENKLHLAKTDAETLPALKINKVDMQWVQVLAEGWATPLNGFMREREYLQCLHFDCLLDGGVINLSVPIVLTATHEDKERLDGCTAFALMYEGRRVAILRNPEFFEHRKEERCARQWGTTCKNHPYIKMVMEQGDWLIGGDLQVLDRVYWNDGLDQYRLTPTELKQKFKDMNADAVFAFQLRNPVHNGHALLMQDTHKQLLERGYRRPVLLLHPLGGWTKDDDVPLMWRMKQHAAVLEEGVLNPETTVVAIFPSPMMYAGPTEVQWHCRARMVAGANFYIVGRDPAGMPHPETGKDLYEPSHGAKVLTMAPGLITLEIVPFRVAAYNKKKKRMDYYDSEHHEDFEFISGTRMRKLAREGQKPPEGFMAPKAWTVLTEYYKSLEKA | soluble
19 | MGSDKIHHHHHHMLTGQRRRESRSRQGSGFPTISYPRIRDGANRPRTRMSPLPEAVPFFSQWETPDMTLAVLADGAEVALRRDLLWQGSGAESLDEYAVWAANICGMACLKMILATRGEIVPTIELARRCTRYGGYVVNEGSIKGLIYAPFVSFVQAEFSLEAQVMTNVATSDIPAILRQSRFFIASVSSSIRWPEGEPPSKGGHLVLVTAASDDGFRFHNPSGHTSVTQANAVLAPADFDRFFANRGIAITI | not soluble
20 | MSLNVVGYVRLSRDEDKENYSSIITQKNIIEEYSKNKNWTVNRIYVDDNCSGYTFERPEFLKMMYEIKERKIDVIVAKDLSRIGRNNGKVLVFIDKLKEKGIRLILVEEATGGLDLLEDNYDILGIKTWYNEMYVKDISRKIRASMHLKQKKGKEGHHHHHH | soluble
21 | MLLSKKSEYKTLSTVEHPQYIVFCDFDETYFPHTIDEQKQQDIYELEDYLEQKSKDGELIIGWVTGSSIESILDKMGRGKFRYFPHFIASDLGTEITYFSEHNFGQQDNKWNSRINEGFSKEKVEKLVKQLHENHNILLNPQTQLGKSRYKHNFYYQEQDEINDKKNLLAIEKICEEYGVSVNINRCNPLAGDPEDSYDVDFIPIGTGKNEIVTFMLEKYNLNTERAIAFGDSGNDVRMLQTVGNGYLLKNATQEAKNLHNLITDSEYSKGITNTLKKLIGFMRRKLEHHHHHH | soluble
22 | MSLKFMYSALLGNPVEHSISDELFEYLNHNIGVLDEYKHKKILVDSVCLEDKIKHLINDPKCIGLNITLPYKREVMRYIDNLDRVAEITGSVNNIYKSGNIITGTNTDWKGIYNTLVFFNISHITKCCVLGTGGTARAAIFALQKLQISPTVVYREPISENTRSLIKSFPDLKYITYKELADQQILNDMEIIINTTPVGMINYEESLPINFDHLDNVNYKDKYFMDVVFNPLHTKLHEYFGKKGAKIIDGLWVLIFQGIEAFSLWSDKINDGKYFFSEGHHHHHH | not soluble
23 | MGNTATEFDGPYVITPISGQSTAYWICDNRLKTTSIEKLQVNRPEHCGDLPETKLSSEIKQIMPDTYLGIKKVVALSDVHGQYDVLLTLLKKQKIIDSDGNWAFGEGHMVMTGDIFDRGHQVNEVLWFMYQLDQQARDAGGMVHLLMGNHEQMVLGGDLRYVHQRYDIATTLINRPYNKLYSADTEIGQWLRSKNTIIKINDVLYMHGGISSEWISRELTLDKANALYRANVDASKKSLKADDLLNFLFFGNGPTWYRGYFSETFTEAELDTILQHFNVNHIVVGHTSQERVLGLFHNKVIAVDSSIKVGKSGELLLLENNRLIRGLYDGTRETLQENSLNQ | soluble
